Measurements from a protein production outcome set (Wang et al. 2014).

Assay: label from the status in PepcDB records

Sequence | protein production
MNSGTLLGKASISFSRPVYIQSCASVVGPKEGDGPLKNCFDMICDDPMFGEKKWEAAESAMQKEAAVLAIGKAGLTPDDIRFVFAGDLLAQTIASSFGIAEMGIPFFGLYGACSTMGESLSLGAIAVSAGYGHHILCATSSHFATAEKEFRFPLGYGCQRPLSATWTVTGSAACILSPEAPHPSEIVGSSLLRSTLGSVAITGITTGKVIDFGFRDSLNMGGCMAPAACDTIYRNFEDFGRSVNDYDAVLTGDLGVVGRQILLDLLKEKNIDLSSVHQDCGLLIYDNQKQDTHSGGSGCGCAASVLAAYILPRVVSGFWKRVLFVPTGAMLSKVSFNEGESVAGIAHGVVIEHISKETEV | failed
MNSLPIADLLVSAVIAACIVLSAMRGVIAEAGSMAAWVVSFFFAKLFAASFADLAFASFQPRLFALALSFISLFVIACLIQKMLRSLLTSAVSAVGLGFANRILGGVFGALKGVLIVTLLVMLASKTDLPDTEEWRQSYTLPFFVSLSEAVLNHSGGTAETPEDD | failed
MNSPANITDPLVLFMPSGKRGRFPVGTPVLDAARQLGVYVESVCGGRATCGRCQIEVQEGNFAKHKIVSSNDHISPKGPKEERYERVRGLPERRRLSCSAQILGDLVIDVPQDTVINAQTIRKDADTRVIARDTAIRMCYVEIEEPDMHKPLGDLDRLKIALMKDWGFKNLEFDFYLLPQVQGILRKGNWTATAAIHKDADSDIARVIALWPGLKNEAYGLACDIGSTTIAMHLVSLLSGRVAASSGTSNPQIRFGEDLMSRVSYVMMNPDGREGMTVAVREAISSLVDKVCAEGNVQRNDILDSVFVGNPIMHHLFLGIDPTELGGAPFALAVSGAVRIKASDIGLKLNQGARLYMLPCIAGHVGADAAAVTLSEGPHRQDEMMLIVDVGTNAEIVLGNRARVVAASSPTGPAFEGAEISGGQRAAPGAIERVRIDPDTLEPKYRVIGSELWSDEPGFLDSVQATGVTGICGSGIIEIVAEMYLAGIISEDGVVDGSLAARSPRVTANGRTFSYVLKEGEPKITITQTDVRAIQLAKAALYAGTKLLMEKQNTEHVDRIHFAGAFGSFIDPKYAMVLGLIPDCDLDKVSAVGNAAGAGARMALLNRGYRREIEETVSQIEKIETALEPKFQEHFVYAMALPNKVDPFPKLSAAVKLPPRKTVSEDGIAGDATPRRRSREGHAARRSRE | failed
MNSQPRHFAPLARLLHWLMALLIIAMLFIGAGMVASVSARHEWLIHLHKPLGIAILLLVLVRLWVRFYTRQPPLPADLPGWQVLAAKASHVLLYALMLSLPLLGWGMISAAGDPVMLGSSLQLPAILPANAQLFAVLRKAHGYLAYLLFFTVLLHLAAALFHGWVRRDGVLQSMLRGRG | not failed
MNSRLGTTASSITRSALPTTVVWDPAMTAYNFGPGHPMAPQRLELTARLAESLGLFNHNHVAVEAPTVATDVELFSVHSRDYVEAVRRVSADPSAPEEERGLGTEDDPAFAGMHEASARLAGGSLLAAETILSGQAVRAVNFSGGMHHAARERASGFCVYNDVALAIQKLLDGGVQRVVSIDVDAHHGDGTQSIFWNDPRVMTISLHETGLTLFPGTGFANETGGPDAPGTAVNVALPAFTGDAAWLRAFHAVVPQLVGAFQPEVIVSQHGCDSHRDDPLTHLNLSVDGQREAASAVAGLAARYCDNRWIATGGGGYDVTGVVPRAWSHLIGMVTQRPVPLKTPVPEAWRSYVKETYGVWAPESMSDDVDVWWRSWEVGYNPADEVDRTVIATRKEIFPLYGLDPWFD | failed
MNSYDETVQDIITAVGGKDNIEEVFHCVARLRFYLKDSTQLNKTILQKNSNIYDFKFENNQLQILIGSDVNKYYKALMKCINEDKDFSKAKKGNIKMSKSSDKDKQLAEQIVKLVGGKENVNSLIHCVTRLRFKLKDESKADDEAIKNLHGVMGVAHAGGQYQVIIGNNVTDIYDQVMPLLGLSSEQEVTQDDEKEGNIFSRLVALISSLFMPLLGVMTGAGMLKGLLVLFGVLGWVKQGTGTYMILNAAADALFYFLPILLGFTAGKTFKINPFVGAVTGGALVYPSMVAAATAHKAITFLGIPVNLMNYSQTMLPIVIAIWGMSWLEKGTKKIIPSSVRNLFVPLLDLMIVVPLAYIIIGPIMQTLSQWLSEASLWIYGILPVAAGFIIGGIWQGAVILGLHWAFIPVLMNNLMTNHFDPINGIMYCTLFGQVGACFAMGLKAKDKNFKEIAIPAAISGLVGITEPIIYGVTLPHKKAFAFASVGSAFGGAIAAACHAGMYTMPGGGIFGIPAFINPKGINMQFYGFLISLLVAIVVSFVLTMIFGDTVVPSAPKAKVQVKKAEFKDQAIYSPLEGTVVELKDVKDPVFSAGTIGKGIAVKPTNNEVRAPFDGKVISVFPTKHAIGLKSENGVELLIHLGIDTVNLQGKYFDSMVKDGQEIKKGDLIEKFDVQAIQEAGYDTVVPIVVTNSNNFDDVISEKKNGDKVNFGDQLLMATVEQDVNVQDSSIAKA | failed
MNTEPANVEDKLPMNILVLGSDEKQGGRSDTIMLVHIQKDFQPIVISIPRDTRVKVEGIKGYSKINAAYAYGKSKLAVKTVEDILGIKIDKYVVVNYEAVEKIVDLVGGVDVEVPFHLYYVDTTPGKELYINIPAGLQHLDGKKAVEFLRWRHNSNGKEYGRGGDLGRIEMQRKLLYALIEKMLKPQNIVRLPLIVQTVSKYTDHNFTKNEIMWFIQNVGKFNTQNIMMTILPGYPKYIDRVSYYILNEEKCRALIDDLNEPEVLKDSMKIKILSKSFDDKATQLKNDLESKGYSNVNLGRVSKLESSEVELKRVNRKYLELLKNDIDLSTYQVVYSPDYSDKFDVYIKVKLEHHHHHH | not failed
MNTHYVGPVLYTPKENVSEKLLKLFDADQPIIFCYTARFYDNVGESGKAIFDNMIKIADKIDASIIISTGNKKDELLALDIASKELKSGKVSIVDYVPLDMAYEKSDLVIHHGGHGSCLAQFYYGVPSVIIPTHTEREYNARMCEKLHVGKMLPRRELNSANLKNCINDVLNDITYKKSVRDWKEKVSGLEHHHHHH | failed
MNTLLLTAGRVLLALYFLIPGIMKFVSWDMHIQLMEKHEMPFVPVLLGLAGVFQIGAAILLIANRFTWIVALLLAGLVLVINVSLHDFWNYSGMEGAHEMQNFIKNLGIFAGLLVLSGHSMPECCKTKKKS | failed
MNTMEEKYILSDRGKVYYWIKESNSVFAKNLIFLPGLTANHHLFDFQIQYFSKNHNVLVWDAPAHGKSRPYLDFSYSNLVEELKVILDKQNMKKVVLIGQSAGGFVAQSFIVKYPNMVEGLMMIGTCPYGTDYYSKSDIFWLKQTEWMLKLFPDKLLRNIISKMCGATSEGRRSMLKMLEGYEKKELCHLMYLGFAGFIPEIQDLNIHCPVCLVVGDKDKTGKVRKYNEQWHNKTGYPLHIIKNASHNVNVDKPNELNQIMDIFIKQLN | not failed
MNTSCTSYHSMALSESQRDILGMIATNHQLHDILTAICLMIDAQDPGTLCSILLTDAQGKHLLKGAAPGLPPAYSDAIHGLPIGPQEGTCGTAAFRRELVVTADIARDPSWERFRSLALGYNLRSCWSLPLLSHEGSVLGTFALYQDQAIAPSEVQIHRLTCAAQLAAIAIRH | failed
MNTSGIGGYFRQGLFGRDLLASVVVFLVALPLCMGIAIASGMPPAAGLITGIVGGLVVGFLAGSPLQVSGPAAGLAVLVFELVREHGAVALGPVILVAGAIQLIAGLCRAGVWFRMTSPAVVAGMLSGIGILIVASQAHVLMDAAPKARGLENFAALPGVLWQAISEGTGRNALFVGLATIGIILAWDKLRPQRLRFLPGALIAVVVVTATVQLQGLNVNKVDVPTNLFSAISIPSISDIFGVFNHTLLVSAVTFAFIASAETLLSAAAVDRMHQGARTQYDRELAAQGVGNMLCGFLGALPMTGVIVRSAANVQAGAATRASTILHGSWLLVFAMLLPWLLRMTPVACLAGILVYTGVKMIKIGQVKELATYGRGTAAIYLATTFAIVATDLLTGVLIGFGLSLFRLALHSSRLKVEVREHADKKDEMHLTLQGSATFLKVPAMARTLESVPPNTALHLDVAKLHHVDHACIELLRDWSRNAASRGCELVVDWKELDRRVEGQPTVDGVLVEQRVEQAKAA | failed
MNTSHVRVVTHMCGFLVWLYSLSMLPPMVVALFYKEKSLFVFFITFVIFFCIGGGAWYTTKKSGIQLRTRDGFIIIVMFWILFSVISAFPLWIDSELNLTFIDALFEGVSGITTTGATVIDDVSSLPRAYLYYRSQLNFIGGLGVIVLAVAVLPLLGIGGAKLYQSEMPGPFKDDKLTPRLADTSRTLWITYSLLGIACIVCYRLAGMPLFDAICHGISTVSLGGFSTHSESIGYFNNYLVELVAGSFSLLSAFNFTLWYIVISRKTIKPLIRDIELRFFLLIALGVIIVTSFQVWHIGMYDLHGSFIHSFFLASSMLTDNGLATQDYASWPTHTIVFLLLSSFFGGCIGSTCGGIKSLRFLILFKQSKHEINQLSHPRALLSVNVGGKIVTDRVMRSVWSFFFLYTLFTVFFILVLNGMGYDFLTSFATVAACINNMGLGFGATASSFGVLNDIAKCLMCIAMILGRLEIYPVIILFSGFFWRS | failed
MNTTEFDGISHAEGLCDKEFIGKAISYLYRYGQIYIGKKIEPYGIGSGQFPFLMRLYREDGINQESLSDYLKIDKGTTARAIQKLVDEGYVFRQRDEKDRRSYRVFLTEKGKKLEPDMKKIASEWGEILFSSFDDRQRREITNSLEIMFENGLKIM | not failed
MNTTKRILILLLLALITGCAMHTTRNPSFLEGKRLIAEGRLEEGLGKLEQAAREEPDDREVGATLARERDTIIGQILFEADNARLAGNLDQAEQNYQRVLNIRASSERAREGLDAVDLERRHIVLVNQAKEALAHGDVDGAEKIVRGVLADNPMQSEARQLIKALSEQIARAEMSELSLITEFSKPITMEFRDTSLKTMFELISRTAGINFVFDRNVQQEATASIFVRDNSIEDVLKLMLLTNQLAYKVLNSNTLLIYPDTPAKQKDYQELVVRSFHVANTDVKQMVAMIRGLVKARDIYVNEKLNLFVIRDTLEMIRLVERLVAINDFPDPEVMLDVVVLEVKRDSTLDLGPNMPTSVTFSAVPGIGTPAQAAADSVVKMSMIKNTGFEGLRSFTISNQARIDFGRTLTNADVLANPRIRVKSREKAKIHIGNKEPVFTVTNTANVGSAASATYIDVGLKFEVEPVVRTNNEVTLKALLEVSSNLGEKRSGSGENAATAIVIGTRTAETVLELRDGETQVLAGLIQDDLSRVRSGIAGLTDIPVLGDIFSKQVRKHNKTEIILLITPHIVRNVIQPNHFESEFYSGTASAAGKLPVTIRKTAPRSLAMESSNSASDGGYMSLGRARSAGLFGAAPDLFEEAVTQAREASPSLTLRVPESVAGGREFTATVRLVTQDPMLSGELNLTYDPDTLELVDGGEKSGMRSLKLGRDQSTGMTAVLRFKVISTNATSTEIALQNLQVRDETGQPVEVNLPPAASIRIQ | failed
MNTTLFRWPVRVYYEDTDAGGVVYHASYVAFYERARTEMLRHHHFSQQALMAERVAFVVRKMTVEYYAPARLDDMLEIQTEITSMRGTSLVFTQRIVNAENTLLNEAEVLVVCVDPLKMKPRALPKSIVAEFKQ | not failed
MNVDFINPFLDSLLNVLKTMANMELKPGKPNLKKDNLAKGDVSGLIGMVGPQTKGSLSITFEETLILEIMNKMLGEKPESIDEEVTDLVGELTNMVTGGAKNLLSDKGYEFDMATPIVVSGKNHTIAHKSDGQKIIMPFSSIYGTAYIEICFEG | not failed
MNVLRPTLLTLACLLASPGFADDLPSLGDASSAIVSPQQEYQLGRAWLALLRSQVSQLNDPQLKDYVETSVYKLVETSQVNDRRLEFILINSPQLNAFAAPGGIIGVNGGLFLNAQTEGEYASVLAHELAHLSQRHFARGVEAQQRMQVPMMAALLAGIVIAAAGAGDAGIATIAGTQAAAIQEQRRFSRQNEQEADRIGILNLEKAGYDPRSMPTMFERLMRQYRFDAKPPEFLLTHPVTESRIADTRNRAEQARQGGTEDSLRYQLIRARVQLTYEESPGLAAKRFRAQLDENPKNDIARYGLAIAQIKGSQWNEARENLKPLLAKSPNDVTYNLAQIELDMANSRLPDAQTRVERMLNLYPGNYPLNQIRVDLLLKQNRPADAEKALEGLLKSRPDDPDVWYLVAETRGLSGNIIGLHQARAEYFALVGDYRQAIQQLDFAKRRAGSNFPLSSRIDARQREMMDQEQMVKDMMRLEHHHHHH | not failed
